Here are results for 1 protein from publication PMC8561747 (Cell host & microbe, 2021).

This series deals with the molecule itself. As to the kind of experiment: SEC.

B1: FMNL1_(1–385) (domain or fragment, human, UniProt O95466 1-385, looked up)
chain: MGNAAGSAEQPAGPAAPPPKQPAPPKQPMPAAGELEERFNRALNCMNLPPDKVQLLSQYDNEKKWELICDQERFQVKNPPAAYIQKLKSYVDTGGVSRKVAADWMSNLGFKRRVQESTQVLRELETSLRTNHIGWVQEFLNEENRGLDVLLEYLAFAQCSVTYDMESTDNGASNSEKNKPLEQSVEDLSKGPPSSVPKSRHLTIKLTPAHSRKALRNSRIVSQKDDVHVCIMCLRAIMNYQSGFSLVMNHPACVNEIALSLNNKNPRTKALVLELLAAVCLVRGGHDIILAAFDNFKEVCGEQHRFEKLMEYFRNEDSNIDFMVACMQFINIVVHSVENMNFRVFLQYEFTHLGLDLYLERLRLTESDKLQVQIQAYLDNIFDVG
In the case of B1, the binding result is listed as “binds”.
